The data set concerns the molecule itself. Kind of data set: crystal structure.

B1: alanine:glyoxylate aminotransferase 1, minor allele (AGT-Mi), purified recombinant (enzyme, human)
chain: MASHKLLVTPLKALLKPLSIPNQLLLGPGPSNLPPRIMAAGGLQMIGSMSKDMYQIMDEIKEGIQYVFQTRNPLTLVISGSGHCALEAALVNVLEPGDSFLVGANGIWGQRAVDIGERIGARVHPMTKDPGGHYTLQEVEEGLAQHKPVLLFLTHGESSTGVLQPLDGFGELCHRYKCLLLVDSVASLGGTPLYMDRQGIDILYSGSQKALNAPPGTSLISFSDKAKKKMYSRKTKPFSFYLDIKWLANFWGCDDQPRMYHHTIPVISLYSLRESLALIAEQGLENSWRQHREAAAYLHGRLQALGLQLFVKDPALRLPTVTTVAVPAGYDWRDIVSYVMDHFDIEIMGGLGPSTGKVLRIGLLGCNATRENVDRVTEALRAALQHCPKKKL
As for B1, the binding result is “binds”.
